This note sets out measurements from patent publication US20250320281A1.

Usually IC50 stands for the concentration at which inhibition is half-maximal.

Holding throughout (test): cell-based or functional assay
For test [1], the target named is HIV-1 Env of isolate MGRM-G-024 (HIV-1).
Test [2] deals with HIV-1 92BR020 Env (pseudovirus) (HIV-1).
Test [3] deals with HIV-1 Env of isolate MGRM-G-027 (HIV-1).
Test [4] has as its target HIV-1 Env of isolate MGRM-G-016 (HIV-1).
For test [5], the target named is HIV-1 Env of isolate MGRM-G-001 (HIV-1).
Test [6] deals with HIV-1 94UG103 envelope glycoprotein (Env) on pseudovirus (HIV-1).
Test [7] concerns the target HIV-1 Env of isolate THR0.18 (subtype B pseudovirus) (HIV-1).
Test [8] deals with HIV-1 MGRM-C-028 Env (pseudovirus, clade C) (HIV-1).
Test [9] concerns the target HIV-1 Env of isolate MGRM-F1-015 (HIV-1).
Test [10] deals with HIV-1 Env of isolate QH0692.42 (subtype B pseudovirus) (HIV-1).
For test [11], the target named is HIV-1 Env of isolate 92TH021 (clade AE), on pseudovirus (HIV-1).
Test [12] has as its target HIV-1 Env of isolate MGRM-Chronic-B-017 (subtype B pseudovirus) (HIV-1).
For test [13], the target named is HIV-1 Env of isolate MGRM-D-012 (pseudovirus) (HIV-1).
Test [14] addresses HIV-1 Env of isolate MGRM-F1-013 (HIV-1).
Test [15] concerns the target HIV-1 Env of isolate MGRM-Chronic-B-012 (subtype B pseudovirus) (HIV-1).
Test [16] has as its target HIV-1 MGRM-C-027 Env (pseudovirus, clade C) (HIV-1).
In test [17] the target is HIV-1 Env of isolate MGRM-D-019 (pseudovirus) (HIV-1).
Test [18] has as its target HIV-1 Env of isolate MGRM-Chronic-B-002 (subtype B pseudovirus) (HIV-1).
Test [19] concerns the target HIV-1 Env of isolate MGRM-C-026 (pseudovirus) (HIV-1).
Test [20] deals with HIV-1 Env of isolate MGRM-F1-018 (HIV-1).
In test [21] the target is HIV-1 Env of isolate 92UG005 (clade D), on pseudovirus (HIV-1).
Test [22] concerns the target HIV-1 Env of isolate MG RM-D-013 (HIV-1).
In test [23] the target is HIV-1 Env of isolate MG RM-D-018 (HIV-1).
Test [24] deals with HIV-1 Env of isolate MG RM-D-012 (HIV-1).
Test [25] has as its target HIV-1 Env of isolate MG RM-D-022 (HIV-1).
Test [26] has as its target HIV-1 Env of isolate 98IN022 (clade C) (HIV-1 isolate 98IN022).
Test [27] addresses HIV-1 Env of pseudovirus MGRM-AE-005 (clade CRF01_AE) (HIV-1).
Test [28] concerns the target HIV-1 Env of pseudovirus MGRM-G-027 (HIV-1, clade G isolate MGRM-G-027).
For test [29], the target named is HIV-1 Env of pseudovirus MGRM-G-006 (clade G) (HIV-1).
The target in test [30] is HIV-1 Env of isolate 98CN009 (HIV-1).
The target in test [31] is HIV-1 Env of pseudovirus MGRM-F1-022 (HIV-1).

4995_E20 (PGT-142) (antibody), sequence (VH): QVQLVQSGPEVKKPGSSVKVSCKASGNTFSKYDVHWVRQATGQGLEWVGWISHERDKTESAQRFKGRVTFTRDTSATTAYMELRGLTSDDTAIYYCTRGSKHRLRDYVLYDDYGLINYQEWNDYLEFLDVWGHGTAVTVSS
4995_E20 (PGT-142) (antibody), sequence (VL): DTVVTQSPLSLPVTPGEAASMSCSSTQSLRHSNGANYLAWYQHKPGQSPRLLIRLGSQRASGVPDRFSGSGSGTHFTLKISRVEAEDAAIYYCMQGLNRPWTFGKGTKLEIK
4970_K22 (PGT-144) (antibody), sequence (VH): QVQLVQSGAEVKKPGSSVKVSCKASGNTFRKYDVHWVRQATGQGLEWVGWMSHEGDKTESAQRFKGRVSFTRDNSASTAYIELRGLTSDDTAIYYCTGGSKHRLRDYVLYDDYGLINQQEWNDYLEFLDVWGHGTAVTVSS
4970_K22 (PGT-144) (antibody), sequence (VL): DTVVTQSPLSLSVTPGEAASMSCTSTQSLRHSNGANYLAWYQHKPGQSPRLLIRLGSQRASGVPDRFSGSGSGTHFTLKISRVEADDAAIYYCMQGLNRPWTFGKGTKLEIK
4993_K13 (PGT-141) (antibody), sequence (VH): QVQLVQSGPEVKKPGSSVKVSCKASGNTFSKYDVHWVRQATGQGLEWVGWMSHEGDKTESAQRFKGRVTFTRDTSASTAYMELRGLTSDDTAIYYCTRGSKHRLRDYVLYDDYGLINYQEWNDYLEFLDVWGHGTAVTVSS
4980_N08 (PGT-143) (antibody), sequence (VH): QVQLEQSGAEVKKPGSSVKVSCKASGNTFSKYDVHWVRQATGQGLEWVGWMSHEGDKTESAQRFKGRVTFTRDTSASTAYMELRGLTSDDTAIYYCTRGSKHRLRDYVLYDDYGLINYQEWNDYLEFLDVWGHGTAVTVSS
4980_N08 (PGT-143) (antibody), sequence (VL): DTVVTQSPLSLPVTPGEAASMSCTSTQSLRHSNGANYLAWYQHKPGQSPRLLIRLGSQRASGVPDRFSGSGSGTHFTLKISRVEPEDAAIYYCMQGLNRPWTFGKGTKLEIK

Consider 4970_K22 (PGT-144) (antibody), for which the IC50 (µg/mL), pseudovirus neutralization is 7.92 µg/mL in [1], over 50 µg/mL in test [3], over 50 µg/mL in test [4] and over 50 µg/mL in [5]. This substance also gave a neutralization IC50 (pseudovirus) in [2] of over 10 mg/L.

Consider 4858_P08 (PGT-123) (antibody), for which the neutralization IC50 in test [6] is 0.846 mg/L. The neutralization IC80 in test [6] came out at 3.29 mg/L. Besides, the neutralization IC90 in test [6] was found to be 8.56 mg/L. In addition, the neutralization IC95 in test [6] was over 10 mg/L. Further, the IC50 (µg/mL), pseudovirus neutralization was over 50 µg/mL in test [7]; over 50 µg/mL in test [9]; 0.158 µg/mL in [10]; over 50 µg/mL in [12]; 0.08 µg/mL in test [14]; 0.227 µg/mL in test [15]. Moreover, the IC50 (µg/mL), pseudovirus neutralization was determined as 0.234 µg/mL in [18] and 0.054 µg/mL in test [20]. The figures for the IC50 neutralization in [8] and in [16] were 0.443 mg/L and 0.0169 mg/L, respectively. Besides, the neutralization IC50 (pseudovirus) in [2] stood at 0.013 mg/L. In addition, the IC50, pseudovirus neutralization was over 10 mg/L in test [11], over 50 mg/L in [13], over 50 mg/L in [17] and 2.49 mg/L in [21]. Besides, the Primary Neutralization Index (B cell culture supernatant) in [19] is 33.8.

With 4980_N08 (PGT-143) (antibody), the IC50 (µg/mL), pseudovirus neutralization in test [1] was 0.048 µg/mL; in test [3], over 50 µg/mL; in test [4] it was 7.6 µg/mL; in test [5], 0.423 µg/mL. Further, in test [2], the neutralization IC50 (pseudovirus) was over 10 mg/L.

As to 5145_B14 (PGT-127) (antibody), the IC50 (µg/mL), pseudovirus neutralization was over 50 µg/mL in test [7]; over 50 µg/mL in test [9]; 0.129 µg/mL in [10]; over 50 µg/mL in test [12]; over 50 µg/mL in test [14]; 0.075 µg/mL in [15]. Further, the IC50 (µg/mL), pseudovirus neutralization was found to be 0.279 µg/mL in test [18] and 3.59 µg/mL in [20]. Also, the IC50, pseudovirus neutralization in [13] and in test [17] was over 50 mg/L throughout. The Polyclonal Transfectant Neutralization Index in [19] came out at 2.62. The same substance had a Primary Neutralization Index (B cell culture supernatant) in [19] of 86.9.

On to 4995_E20 (PGT-142) (antibody), for which the IC50 (µg/mL), pseudovirus neutralization in test [1] is 0.054 µg/mL; in test [3] it was over 50 µg/mL; in test [4], 8.17 µg/mL; in test [5], 0.362 µg/mL. The neutralization IC50 (pseudovirus) in [2] is over 10 mg/L.

5123_A06 (PGT-125) (antibody): the IC50 (µg/mL), pseudovirus neutralization was over 50 µg/mL in test [7]; over 50 µg/mL in [9]; 0.048 µg/mL in test [10]; over 50 µg/mL in [12]; over 50 µg/mL in test [14]; 0.036 µg/mL in test [15]. Further, the figures for the IC50 (µg/mL), pseudovirus neutralization in [18] and in test [20] were 0.064 µg/mL and over 50 µg/mL, respectively. Further, the results for the IC50 neutralization in test [8] and in test [16] were 5.78 mg/L and over 10 mg/L, respectively. Further, the neutralization IC50 (pseudovirus) in test [2] is 0.0214 mg/L. Besides, the IC50, pseudovirus neutralization was 0.0066 mg/L in test [11], over 50 mg/L in test [13], 0.049 mg/L in [17] and over 10 mg/L in [21]. The substance further registered a Polyclonal Transfectant Neutralization Index in [19] of 88.3. In test [19], this substance came in with a Primary Neutralization Index (B cell culture supernatant) of 512.

4838_L06 (PGT-121) (antibody): the IC50 (µg/mL), pseudovirus neutralization in [7] was over 50 µg/mL; in test [9], 28.4 µg/mL; in test [10], 0.823 µg/mL; in test [12], over 50 µg/mL; in [14], 0.083 µg/mL; in test [15] it was 0.036 µg/mL. For the same substance, the figures for the IC50 (µg/mL), pseudovirus neutralization in test [18] and in [20] were 0.386 µg/mL and 0.04 µg/mL, respectively. In addition, the IC50, pseudovirus neutralization in test [11] was over 10 mg/L; in test [13], over 50 mg/L; in test [17] it was over 50 mg/L; in test [21], over 10 mg/L.

For the substance VRC01 (antibody), the IC50 (µg/mL), pseudovirus neutralization is 0.025 µg/mL in [1], 0.36 µg/mL in [3], 0.063 µg/mL in test [4] and 0.0371 µg/mL in test [5]. Also, the concentration for half-maximal inhibition (IC50) in test [22] is 0.087 mg/L; in [23], over 50 mg/L; in test [9], 0.387 mg/L; in [24], 0.216 mg/L; in [14] it was 0.17 mg/L; in test [25], over 50 mg/L. The substance further showed an IC50 in test [20] of 0.032 mg/L.

Take 4993_K13 (PGT-141) (antibody): the IC50 (µg/mL), pseudovirus neutralization in test [1] is 0.051 µg/mL; in test [3], over 50 µg/mL; in test [4], 4.69 µg/mL; in test [5] it was 0.392 µg/mL. The substance also returned a neutralization IC50 (pseudovirus) in [2] of over 10 mg/L.

For the substance 1496_C09 (PG9) (TCN-109) (antibody), the IC50 (µg/mL), pseudovirus neutralization in test [1] is 0.163 µg/mL; in test [3], 0.007 µg/mL; in test [4], 1.36 µg/mL; in test [5], 0.166 µg/mL. The IC50 (µg/ml), pseudovirus neutralization in test [26] was found to be 0.006 µg/mL; in test [28], 0.01 µg/mL; in test [31] it was 0.06 µg/mL. The IC50, pseudovirus neutralization in [6] worked out at 0.173 mg/L; in test [11] it was 0.103 mg/L. Moreover, the figures for the IC50 in [27], in [29] and in test [30] were 0.16 mg/L, 0.51 mg/L and 0.371 mg/L, respectively. The figures for the IC50 neutralization in test [8] and in [16] were 0.121 mg/L and 2.45 mg/L, respectively.

Take PGV04 (antibody): the IC50 (µg/mL), pseudovirus neutralization is 0.033 µg/mL in [1]; 0.125 µg/mL in test [3]; 0.019 µg/mL in [4]; over 50 µg/mL in test [5]; 0.44 µg/mL in [21]. The substance also came in with a half-maximal inhibitory concentration (IC50) in [30] of 0.0125 mg/L.

Turning to 4877_D15 (PGT-122) (antibody), the IC50 (µg/mL), pseudovirus neutralization in test [7] is over 50 µg/mL; in test [9] it was 31.4 µg/mL; in [10], 0.493 µg/mL; in [12], 5.66 µg/mL; in test [14], 0.152 µg/mL; in test [15], 0.066 µg/mL. In addition, the IC50 (µg/mL), pseudovirus neutralization was found to be 1.8 µg/mL in test [18] and 0.563 µg/mL in test [20]. Further, the IC50 neutralization came to 2.06 mg/L in test [8] and 0.0388 mg/L in [16]. Besides, the neutralization IC50 (pseudovirus) in test [2] came out at 0.0337 mg/L. Besides, the IC50, pseudovirus neutralization in test [11] is over 10 mg/L; in test [13], over 50 mg/L; in [17], over 50 mg/L; in test [21] it was over 10 mg/L.
